Data reported in patent US20240000885A1 (VANDERBILT UNIVERSITY, published 2024).

What was measured:
[1] = target: MHV M tail with truncation of 40 carboxyl-terminal amino acids (mouse hepatitis coronavirus strain A59, UniProt P04386 1-147); experiment: binary yeast 2-hybrid
[2] = target: MHV M cytoplasmic tail (amino acids 105-228), GAL4-BD fusion (mouse hepatitis coronavirus strain A59, UniProt P04386 1-147); experiment: binary yeast 2-hybrid

B1: pAD-MYO5B(ABCDE) (other)
chain: GSPDSYSLLLNQLKLAHEELEVRKEEVLILRTQIVSADQRRLAGRNAEPNINARSSWPNSEKHVDQEDAIEAYHGVCQTNSKTEDWGYLNEDGELGLAYQGLKQVARLLEAQLQAQSLEHEEEVEHLKAQLEALKEEMDKQQQTFCQTLLLSPEAQVEFGVQQEISRLTNENLDLKELVEKLEKNERKLKKQLKIYMKKAQDLEA
notes: also called MYO5B ABCDE exons; construct containing just the ABCDE exons
- binding result [1]: no binding

B2: pAD-MYO5B(ABCE) (other)
chain: GSPDSYSLLLNQLKLAHEELEVRKEEVLILRTQIVSADQRRLAGRNAEPNINARSSWPNSEKHVDQEDAIEAYHGVCQTNRLLEAQLQAQSLEHEEEVEHLKAQLEALKEEMDKQQQTFCQTLLLSPEAQVEFGVQQEISRLTNENLDLKELVEKLEKNERKLKKQLKIYMKKAQDLEA
- binding result [2]: no binding
